Reference: patent publication US11278600B2, “Human alpha-galactosidase variants” (Codexis, Inc., priority 2014, dated 2022)
Substitutions are numbered along the chain they refer to.

B1: 22 (protein)
chain: LDNGLARTPTMGWLHWERFMCNLDCQEEPDSCISEKLFMEMAELMVSEGWKDAGYEYLCIDDCWMAPQRDSEGRLQADPQRFPHGIRQLANYVHSKGLKLGIYADVGNKTCAGFPGSFGYYDIDAQTFADWGVDLLKFDGCYCDSLENLADGYKHMSLALNRTGRSIVYSCEWPLYMWPFQKPNYTEIRQYCNHWRNFADIDDSWKSVKSILDWTSFNQERIVDVAGPGGWNDPDMLVIGNFGLSWNQQVTQMALWAIMAAPLFMSNDLRHISPQAKALLQDKDVIAINQDPLGKQGYRLRQGDNFEVWERPLSGLAWAVAMINRQEIGGPRSYTIAVASLGKGVACNPACFITQLLPVKRKLGFYEWTSRLRSHVNPTGTVLLQLENTMQMSLKDLLL
modifications: Synthetic Polypeptide sequence of Variant No. 22 of mature Human GLA
B2: 32 (protein)
chain: B1 chain with V208I, R299Q, R373K
modifications: Synthetic Polypeptide sequence of Variant No. 32 of mature Human GLA
B3: 25 (protein)
chain: B1 chain with K36Q, V208I, R299Q, V376I
modifications: Synthetic Polypeptide sequence of Variant No. 25 of mature Human GLA
B4: 31 (protein)
chain: B1 chain with V208I, R299Q, R373K, V376I
modifications: Synthetic Polypeptide sequence of Variant No. 31 of mature Human GLA
B5: 26 (protein)
chain: B1 chain with P179S, V208I, R299Q, R373K, V376I
modifications: Synthetic Polypeptide sequence of Variant No. 26 of mature Human GLA
B6: 28 (protein)
chain: B1 chain with V208I, Q302K, R373K, V376I
modifications: Synthetic Polypeptide sequence of Variant No. 28 of mature Human GLA
B7: 29 (protein)
chain: B1 chain with V208I, Q302K, R373K
modifications: Synthetic Polypeptide sequence of Variant No. 29 of mature Human GLA
B8: 24 (protein)
chain: B1 chain with V208I, R299Q
modifications: Synthetic Polypeptide sequence of Variant No. 24 of mature Human GLA
B9: 30 (protein)
chain: B1 chain with V208I, R299Q, Q302K
modifications: Synthetic Polypeptide sequence of Variant No. 30 of mature Human GLA
B10: 23 (protein)
chain: B1 chain with R299Q, Q302K, R373K
modifications: Synthetic Polypeptide sequence of Variant No. 23 of mature Human GLA
B11: 27 (protein)
chain: B1 chain with V208I, M322V, R373K, V376I
modifications: Synthetic Polypeptide sequence of Variant No. 27 of mature Human GLA

How the values were obtained:
Type in all cases: biochemical
[1] = HTP-analysis of yeast culture supernatants, no challenge (MUGal hydrolysis); conditions: activity of the variant/activity of WT GLA (SEQ ID NO: 5), yeast supernatant
Description: (§1) Yeast (INVSc1) cells transformed with vectors expressing GLA and GLA variants using the lithium acetate method were selected on SD-Ura agar plates. After 72 h incubation at 30° C. colonies were placed into the wells of Axygen® 1.1 ml 96-well deep well plates filled with 200 μl/well SD-Ura broth (2 g/L SD-Ura, 6.8 g/L yeast nitrogen base without amino acids [Sigma Aldrich]), 3.06 g/L sodium dihydrogen phosphate, 0.804 g/L disodium hydrogen phosphate, pH 6.0 supplemented with 6% glucose. The cells were allowed to grow for 20-24 hours in a Kuhner shaker (250 rpm, 30° C., and 85% relative humidity). Overnight culture samples (20 μL) were transferred into Corning Costar® 96-well deep plates filled with 380 µL of SD-ura broth supplemented with 2% glucose. The plates were incubated for 66-84 h in a Kuhner shaker (250 rpm, 30° C., and 85% relative humidity). The cells were then pelleted (4000 rpm×20 min), and the supernatants isolated and stored at 4° C. prior to analysis.
GLA variant activity was determined by measuring the hydrolysis of 4-methylumbelliferyl α-D-galactopyranoside (MUGal). For this assay, 5-50 μL, of yeast culture supernatant produced as described above, was mixed with 0-45 μL, of McIlvaine Buffer (McIlvaine, J. Biol. Chem., 49:183-186 [1921]), pH 4.8 and 50 μL of 2 mM MUGal in 50 mM citrate, 200 mM KCl, pH 4.6 in a 96-well, black, opaque bottom plate. The reactions were mixed briefly and incubated at 37° C. for 30-180 minutes, prior to quenching with 100 μL, of 1 M sodium carbonate. Hydrolysis was analyzed using a SpectraMax® M2 microplate reader monitoring fluorescence (Ex. 355 nm, Em. 448 nm).

[2] = HTP-analysis of supernatants pretreated with acid (MUGal hydrolysis); conditions: challenge at pH 4.3; activity of the variant/activity of WT GLA (SEQ ID NO: 5); yeast supernatant
Description: as §1
GLA variants were challenged with acidic buffer to simulate the extreme pHs that the variants may encounter in lysosomes. First, 50 μL of yeast culture supernatant and 50 uL of McIlvaine buffer (pH 3.3-4.3) were added to the wells of a 96-well round bottom plate. The plates were sealed with a PlateLoc Thermal Microplate Sealer (Agilent) and incubated at 37° C. for 1-3 h. For the assay, 10-50 uL of acid-pH-challenged sample was mixed with 0-40 μL, of McIlvaine buffer pH 4.8, 25 μL, of 1 M citrate buffer pH 4.3 and 25 μL, of 4 mM MUGal in McIlvaine buffer pH 4.8. The reactions were mixed briefly and incubated at 37° C. for 30-180 minutes, prior to quenching with 100 μL, of 1 M sodium carbonate. Hydrolysis was analyzed using a SpectraMax® M2 microplate reader monitoring fluorescence (Ex. 355 nm, Em. 448 nm).

[3] = HTP-analysis of supernatants pretreated with base (MUGal hydrolysis); conditions: challenge at pH 7.0; activity of the variant/activity of WT GLA (SEQ ID NO: 5); yeast supernatant
Description: as §1
GLA variants were challenged with basic (neutral) buffer to simulate the pHs that the variants encounter in the blood following their administration to a patient. First, 50 μL of yeast culture supernatant and 50 uL of McIlvaine buffer (pH 7.0-8.2) or 200 mM sodium bicarbonate (pH 9.1-9.7) were added to the wells of a 96-well round bottom plate. The plates were sealed and incubated at 37° C. for 1-18 h. For the assay, 10-50 μL of basic-pH-challenged sample was mixed with 0-40 μL, of McIlvaine buffer pH 4.8, 25 μL, of 1 M citrate buffer pH 4.3 and 25 μL, of 4 mM MUGal in McIlvaine buffer pH 4.8. The reactions were mixed briefly and incubated at 37° C. for 30-180 minutes, prior to quenching with 100 μL, of 1 M sodium carbonate. Hydrolysis was analyzed using a SpectraMax® M2 microplate reader monitoring fluorescence (Ex. 355 nm, Em. 448 nm).

Molecule	Relative Activity of GLA Variants After No Challenge (NC) [1]	Relative Activity of GLA Variants After Challenge at pH 4.3 [2]	Relative Activity of GLA Variants After Challenge at pH 7.0 [3]
B1	+ (+ = 0.5 to 1.5 relative activity over WT GLA (SEQ ID NO: 5))	+ (+ = 0.5 to 1.5 relative activity over WT GLA (SEQ ID NO: 5))	+ (+ = 0.5 to 1.5 relative activity over WT GLA (SEQ ID NO: 5))
B2	+ (+ = 0.5 to 1.5 relative activity over WT GLA (SEQ ID NO: 5))	++ (++ = >1.5 to 2.5 relative activity over WT GLA (SEQ ID NO: 5))	+ (+ = 0.5 to 1.5 relative activity over WT GLA (SEQ ID NO: 5))
B3	+ (+ = 0.5 to 1.5 relative activity over WT GLA (SEQ ID NO: 5))	+ (+ = 0.5 to 1.5 relative activity over WT GLA (SEQ ID NO: 5))	+ (+ = 0.5 to 1.5 relative activity over WT GLA (SEQ ID NO: 5))
B4	+ (+ = 0.5 to 1.5 relative activity over WT GLA (SEQ ID NO: 5))	+ (+ = 0.5 to 1.5 relative activity over WT GLA (SEQ ID NO: 5))	+ (+ = 0.5 to 1.5 relative activity over WT GLA (SEQ ID NO: 5))
B5	+ (+ = 0.5 to 1.5 relative activity over WT GLA (SEQ ID NO: 5))	+ (+ = 0.5 to 1.5 relative activity over WT GLA (SEQ ID NO: 5))	+ (+ = 0.5 to 1.5 relative activity over WT GLA (SEQ ID NO: 5))
B6	+ (+ = 0.5 to 1.5 relative activity over WT GLA (SEQ ID NO: 5))	+ (+ = 0.5 to 1.5 relative activity over WT GLA (SEQ ID NO: 5))	+ (+ = 0.5 to 1.5 relative activity over WT GLA (SEQ ID NO: 5))
B7	+ (+ = 0.5 to 1.5 relative activity over WT GLA (SEQ ID NO: 5))	+ (+ = 0.5 to 1.5 relative activity over WT GLA (SEQ ID NO: 5))	+ (+ = 0.5 to 1.5 relative activity over WT GLA (SEQ ID NO: 5))
B8	+ (+ = 0.5 to 1.5 relative activity over WT GLA (SEQ ID NO: 5))	++ (++ = >1.5 to 2.5 relative activity over WT GLA (SEQ ID NO: 5))	+ (+ = 0.5 to 1.5 relative activity over WT GLA (SEQ ID NO: 5))
B9	+ (+ = 0.5 to 1.5 relative activity over WT GLA (SEQ ID NO: 5))	++ (++ = >1.5 to 2.5 relative activity over WT GLA (SEQ ID NO: 5))	+ (+ = 0.5 to 1.5 relative activity over WT GLA (SEQ ID NO: 5))
B10	+ (+ = 0.5 to 1.5 relative activity over WT GLA (SEQ ID NO: 5))	+++ (+++ = >2.5 relative activity over WT GLA (SEQ ID NO: 5))	++ (++ = >1.5 to 2.5 relative activity over WT GLA (SEQ ID NO: 5))
B11	+ (+ = 0.5 to 1.5 relative activity over WT GLA (SEQ ID NO: 5))	+ (+ = 0.5 to 1.5 relative activity over WT GLA (SEQ ID NO: 5))	+ (+ = 0.5 to 1.5 relative activity over WT GLA (SEQ ID NO: 5))
